According to US20180155451A1 (published 2018):

How the values were obtained:
FcγRIIb = target: T1, FcγRIIb (human, UniProt P31994 43-217); test: SPR (Biacore), binding relative to GpH7-A5/GpH7-B3/GpL16-k0 = 100
T1 construct: extracellular domain; also called 2b; FcgRIIb
T1 sequence (looked up): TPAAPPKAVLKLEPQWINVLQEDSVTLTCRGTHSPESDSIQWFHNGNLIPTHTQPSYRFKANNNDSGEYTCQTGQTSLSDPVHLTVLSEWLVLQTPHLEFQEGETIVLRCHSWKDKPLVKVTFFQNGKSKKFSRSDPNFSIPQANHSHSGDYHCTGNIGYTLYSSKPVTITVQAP
Procedure: (§1) Analysis of interaction between objective antibody and the FcγR was carried out using Biacore T100 (GE Healthcare). HBS-EP+ (GE Healthcare) was used as the running buffer, and the measurement temperature was set to 25° C. Chips produced by immobilizing the antigen peptide by the amine coupling method to a Series S Sencor Chip CM5 (GE Healthcare), or alternatively, chips produced by allowing preliminarily biotinylated antigen peptides to interact with and immobilize onto a Series S Sensor Chip SA (certified) (GE Healthcare) were used. Antibodies of interest were captured onto an antigen peptide-immobilized chip, and allowed to interact to each FcγR diluted with running buffer. To regenerate and repeatedly use the chip, the antibodies captured on the chip were washed off by reacting 10 mM glycine-HCl, pH 1.5.
(§2) The FcγR-binding activity of each antibody was assessed primarily using as an indicator the FcγR-binding activity and dissociation constant for FcγR.

[1] = target: T2, FcγRIIIa extracellular domain with C-terminal His tag (human, UniProt P08637 17-208); test: SPR (Biacore), relative binding, GpH7-A5/GpH7-B3/GpL16-k0 = 100
T2 construct: extracellular domain; also called 3a; FcgRIIIa; not shown: His tag at the C terminus
Procedure: as §1, §2

[2] = target: T3, FcγRIIb extracellular domain with C-terminal His tag (human, UniProt P31994 43-217); test: as above
T3 construct: extracellular domain; also called 2b; FcgRIIb; not shown: His tag at the C terminus
T3 sequence (looked up): T1 sequence (looked up)
Procedure: as §1, §2

T2 sequence (P08637 17-208): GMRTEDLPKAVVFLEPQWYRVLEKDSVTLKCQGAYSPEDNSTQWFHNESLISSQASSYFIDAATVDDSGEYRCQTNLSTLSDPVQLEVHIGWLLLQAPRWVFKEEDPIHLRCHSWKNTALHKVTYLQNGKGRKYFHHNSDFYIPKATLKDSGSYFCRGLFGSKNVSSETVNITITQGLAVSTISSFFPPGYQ

B1: GpH7-A5/GpH7-B3 variant P271_09D/GpL16-k0 (antibody, human IgG1, kappa)
heavy 1: not shown
heavy 2: not shown
light: DIVMTQSPLSLPVTPGEPASISCQASESLVHSNRNTYLHWYLQKPGQSPQLLIYKVSNRFSGVPDRFSGSGSGTDFTLKISRVEAEDVGVYYCSQNTHVPPTFGQGTKVEIERTVAAPSVFIFPPSDEQLKSGTASVVCLLNNFYPREAKVQWKVDNALQSGNSQESVTEQDSKDSTYSLSSTLTLSKADYEKHKVYACEVTHQGLSSPVTKSFNRGEC
notes: also called He Ab P271_09D
He/Con_2b (FcγRIIb): 120 % of control

B2: GpH7-A5/GpH7-B3 variant V266_01G/GpL16-k0 (antibody, human IgG1, kappa)
heavy 1: not shown
heavy 2: not shown
light: B1 light
notes: He Ab: mutation in the GpH7-B3 H chain only; also called He Ab
He/Con_3a [1]: 24 % of control | He/Con_2b [2]: 51.5 % of control

B3: GpH7-A5/GpH7-B3 variant A327_10E/GpL16-k0 (antibody, human IgG1, kappa)
heavy 1: not shown
heavy 2: not shown
light: B1 light
notes: as for B2
He/Con_3a [1]: 68.6 % of control | He/Con_2b [2]: 140 % of control

B4: GpH7-A5/GpH7-B3 variant D265_02A/GpL16-k0 (antibody, human IgG1, kappa)
heavy 1: not shown
heavy 2: not shown
light: B1 light
notes: as for B2
He/Con_2b [2]: 19.9 % of control

B5: GpH7-A5/GpH7-B3 variant P331_06M/GpL16-k0 (antibody, human IgG1, kappa)
heavy 1: not shown
heavy 2: not shown
light: B1 light
notes: also called He Ab P331_06M
He/Con_2b (FcγRIIb): 102 % of control

B6: GpH7-A5/GpH7-B3 variant A330_01G/GpL16-k0 (antibody, human IgG1, kappa)
heavy 1: not shown
heavy 2: not shown
light: B1 light
notes: as for B2
He/Con_3a [1]: 89.1 % of control | He/Con_2b [2]: 104 % of control

B7: GpH7-A5/GpH7-B3 variant S337_15Y/GpL16-k0 (antibody, human IgG1, kappa)
heavy 1: not shown
heavy 2: not shown
light: B1 light
notes: also called He Ab S337_15Y
He/Con_2b (FcγRIIb): 100 % of control

B8: GpH7-A5/GpH7-B3 variant S239_05P/GpL16-k0 (antibody, human IgG1, kappa)
heavy 1: not shown
heavy 2: not shown
light: B1 light
notes: also called He Ab S239_05P
He/Con_2b (FcγRIIb): 102 % of control

B9: GpH7-A5/GpH7-B3 variant T335_19Q/GpL16-k0 (antibody, human IgG1, kappa)
heavy 1: not shown
heavy 2: not shown
light: B1 light
notes: also called He Ab T335_19Q
He/Con_2b (FcγRIIb): 100 % of control

B10: GpH7-A5/GpH7-B3 variant S239_03V/GpL16-k0 (antibody, human IgG1, kappa)
heavy 1: not shown
heavy 2: not shown
light: B1 light
notes: also called He Ab S239_03V
He/Con_2b (FcγRIIb): 108 % of control

B11: GpH7-A5/GpH7-B3 variant T335_16H/GpL16-k0 (antibody, human IgG1, kappa)
heavy 1: not shown
heavy 2: not shown
light: B1 light
notes: also called He Ab T335_16H
He/Con_2b (FcγRIIb): 102 % of control

B12: GpH7-A5/GpH7-B3 variant D265_10E/GpL16-k0 (antibody, human IgG1, kappa)
heavy 1: not shown
heavy 2: not shown
light: B1 light
notes: as for B2
He/Con_3a [1]: 20.1 % of control | He/Con_2b [2]: 38.2 % of control

B13: GpH7-A5/GpH7-B3 variant S337_20W/GpL16-k0 (antibody, human IgG1, kappa)
heavy 1: not shown
heavy 2: not shown
light: B1 light
notes: also called He Ab S337_20W
He/Con_2b (FcγRIIb): 109 % of control

B14: GpH7-A5/GpH7-B3 variant D265_08L/GpL16-k0 (antibody, human IgG1, kappa)
heavy 1: not shown
heavy 2: not shown
light: B1 light
notes: as for B2
He/Con_3a [1]: 0 % of control | He/Con_2b [2]: 4.6 % of control

B15: GpH7-A5/GpH7-B3 variant S337_18N/GpL16-k0 (antibody, human IgG1, kappa)
heavy 1: not shown
heavy 2: not shown
light: B1 light
notes: also called He Ab S337_18N
He/Con_2b (FcγRIIb): 103 % of control

B16: GpH7-A5/GpH7-B3 variant S337_08L/GpL16-k0 (antibody, human IgG1, kappa)
heavy 1: not shown
heavy 2: not shown
light: B1 light
notes: also called He Ab S337_08L
He/Con_2b (FcγRIIb): 100 % of control

B17: GpH7-A5/GpH7-B3 variant A327_18N/GpL16-k0 (antibody, human IgG1, kappa)
heavy 1: not shown
heavy 2: not shown
light: B1 light
notes: as for B2
He/Con_3a [1]: 61.1 % of control | He/Con_2b [2]: 113 % of control

B18: GpH7-A5/GpH7-B3 variant S267_19Q/GpL16-k0 (antibody, human IgG1, kappa)
heavy 1: not shown
heavy 2: not shown
light: B1 light
notes: also called He Ab S267_19Q
He/Con_2b (FcγRIIb): 218 % of control

B19: GpH7-A5/GpH7-B3 variant S239_10E/GpL16-k0 (antibody, human IgG1, kappa)
heavy 1: not shown
heavy 2: not shown
light: B1 light
notes: also called He Ab S239_10E
He/Con_2b (FcγRIIb): 181 % of control

B20: GpH7-A5/GpH7-B3 variant S267_01G/GpL16-k0 (antibody, human IgG1, kappa)
heavy 1: not shown
heavy 2: not shown
light: B1 light
notes: also called He Ab S267_01G
He/Con_2b (FcγRIIb): 105 % of control

B21: GpH7-A5/GpH7-B3 variant S239_06M/GpL16-k0 (antibody, human IgG1, kappa)
heavy 1: not shown
heavy 2: not shown
light: B1 light
notes: also called He Ab S239_06M
He/Con_2b (FcγRIIb): 101 % of control

B22: GpH7-A5/GpH7-B3 variant T335_20W/GpL16-k0 (antibody, human IgG1, kappa)
heavy 1: not shown
heavy 2: not shown
light: B1 light
notes: also called He Ab T335_20W
He/Con_2b (FcγRIIb): 104 % of control

B23: GpH7-A5/GpH7-B3 variant P331_10E/GpL16-k0 (antibody, human IgG1, kappa)
heavy 1: not shown
heavy 2: not shown
light: B1 light
notes: also called He Ab P331_10E
He/Con_2b (FcγRIIb): 116 % of control

B24: GpH7-A5/GpH7-B3 variant T335_10E/GpL16-k0 (antibody, human IgG1, kappa)
heavy 1: not shown
heavy 2: not shown
light: B1 light
notes: also called He Ab T335_10E
He/Con_2b (FcγRIIb): 108 % of control

B25: GpH7-A5/GpH7-B3 variant P331_15Y/GpL16-k0 (antibody, human IgG1, kappa)
heavy 1: not shown
heavy 2: not shown
light: B1 light
notes: also called He Ab P331_15Y
He/Con_2b (FcγRIIb): 114 % of control
